# Data from publication PMC9703647 (Nature, 2022).
# Target: the molecule itself
# Test: cross-linking
protein,measurement,value
"GSDMA_(1–246) (domain or fragment, human, UniProt Q96QA5 1-246, looked up) MTMFENVTRALARQLNPRGDLTPLDSLIDFKRFHPFCLVLRKRKSTLFWGARYVRTDYTLLDVLEPGSSPSDPTDTGNFGFKNMLDTRVEGDVDVPKTVKVKGTAGLSQNSTLEVQTLSVAPKALETVQERKLAADHPFLKEMQDQGENLYVVMEVVETVQEVTLERAGKAEACFSLPFFAPLGLQGSINHKEAVTIPKGCVLAFRVRQLMVKGKDEWDIPHICNDNMQTFPPGEKSGEEKVILIQ",binding result,binds
